Patent US20220332804A1 (CSL INNOVATION, published 2022)

Legend:
Assay in all cases: SPR, antibody captured, C2 as analyte;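 also: biacore SPR at 37 °C, anti-C2 mAbs captured via goat anti-human IgG on CM5 chips, double-referenced sensorgrams fit to a 1:1 kinetic or steady-state model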
human C2 E267A = target: T1, human C2 E267A (human, UniProt P06681 21-752)
T1 sequence: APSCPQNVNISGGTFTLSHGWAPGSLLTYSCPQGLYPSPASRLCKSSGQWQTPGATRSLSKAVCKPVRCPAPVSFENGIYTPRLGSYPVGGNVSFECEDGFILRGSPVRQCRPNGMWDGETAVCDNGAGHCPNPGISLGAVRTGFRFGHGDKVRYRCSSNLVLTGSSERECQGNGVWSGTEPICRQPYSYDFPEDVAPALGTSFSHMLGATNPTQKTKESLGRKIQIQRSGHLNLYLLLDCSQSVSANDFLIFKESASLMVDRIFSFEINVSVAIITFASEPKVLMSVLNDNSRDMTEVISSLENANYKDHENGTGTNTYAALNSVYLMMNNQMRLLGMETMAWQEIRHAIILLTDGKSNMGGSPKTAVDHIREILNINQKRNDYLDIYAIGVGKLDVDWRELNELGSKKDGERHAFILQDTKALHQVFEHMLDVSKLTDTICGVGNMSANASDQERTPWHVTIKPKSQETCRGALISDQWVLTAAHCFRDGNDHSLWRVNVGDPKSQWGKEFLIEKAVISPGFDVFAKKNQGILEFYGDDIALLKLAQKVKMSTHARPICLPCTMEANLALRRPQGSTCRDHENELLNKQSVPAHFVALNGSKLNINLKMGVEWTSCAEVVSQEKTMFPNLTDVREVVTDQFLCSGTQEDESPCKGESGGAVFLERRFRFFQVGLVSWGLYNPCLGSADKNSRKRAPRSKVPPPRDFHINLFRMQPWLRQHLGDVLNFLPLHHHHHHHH

human C2 F437A = target: T2, human C2 F437A (human, UniProt P06681 21-752)
T2 sequence: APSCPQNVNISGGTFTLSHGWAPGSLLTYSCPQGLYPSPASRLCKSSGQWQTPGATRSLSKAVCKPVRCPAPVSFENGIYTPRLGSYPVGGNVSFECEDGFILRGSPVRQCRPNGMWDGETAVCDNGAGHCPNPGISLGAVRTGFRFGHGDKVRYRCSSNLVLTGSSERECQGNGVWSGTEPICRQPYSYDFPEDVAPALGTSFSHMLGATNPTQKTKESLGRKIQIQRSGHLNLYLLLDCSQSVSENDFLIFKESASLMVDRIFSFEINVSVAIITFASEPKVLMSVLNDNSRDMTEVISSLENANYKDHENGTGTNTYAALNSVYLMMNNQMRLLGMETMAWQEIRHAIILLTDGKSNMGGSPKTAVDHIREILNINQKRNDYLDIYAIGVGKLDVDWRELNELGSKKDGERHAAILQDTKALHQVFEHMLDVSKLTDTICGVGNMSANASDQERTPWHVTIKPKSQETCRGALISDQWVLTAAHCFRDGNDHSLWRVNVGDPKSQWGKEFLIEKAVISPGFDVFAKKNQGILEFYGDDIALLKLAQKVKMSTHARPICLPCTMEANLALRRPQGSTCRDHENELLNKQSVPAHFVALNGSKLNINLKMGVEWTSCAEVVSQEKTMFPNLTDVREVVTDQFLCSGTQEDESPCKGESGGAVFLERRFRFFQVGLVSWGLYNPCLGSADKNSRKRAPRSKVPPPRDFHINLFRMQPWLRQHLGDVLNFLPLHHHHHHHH

human C2 T491A = target: T3, human C2 T491A (human, UniProt P06681 21-752)
T3 sequence: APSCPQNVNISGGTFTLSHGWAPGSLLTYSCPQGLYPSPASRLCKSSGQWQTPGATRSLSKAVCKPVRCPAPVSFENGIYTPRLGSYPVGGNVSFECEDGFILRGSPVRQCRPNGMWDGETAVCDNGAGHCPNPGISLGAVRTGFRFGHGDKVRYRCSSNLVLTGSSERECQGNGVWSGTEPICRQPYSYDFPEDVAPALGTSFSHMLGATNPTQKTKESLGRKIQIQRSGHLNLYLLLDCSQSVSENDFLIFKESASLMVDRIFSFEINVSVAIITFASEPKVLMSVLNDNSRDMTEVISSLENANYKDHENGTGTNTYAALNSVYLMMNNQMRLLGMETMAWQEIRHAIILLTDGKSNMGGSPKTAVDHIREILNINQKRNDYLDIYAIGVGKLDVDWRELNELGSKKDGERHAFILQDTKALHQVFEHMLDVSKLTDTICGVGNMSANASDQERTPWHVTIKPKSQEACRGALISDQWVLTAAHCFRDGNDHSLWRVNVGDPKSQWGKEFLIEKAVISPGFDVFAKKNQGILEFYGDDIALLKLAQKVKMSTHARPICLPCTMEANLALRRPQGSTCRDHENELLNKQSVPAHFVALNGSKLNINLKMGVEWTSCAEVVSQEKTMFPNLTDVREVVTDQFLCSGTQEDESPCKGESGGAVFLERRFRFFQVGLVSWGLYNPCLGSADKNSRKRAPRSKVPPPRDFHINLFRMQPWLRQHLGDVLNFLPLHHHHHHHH

human C2 E275A = target: T4, human C2 E275A (human, UniProt P06681 21-752)
T4 sequence: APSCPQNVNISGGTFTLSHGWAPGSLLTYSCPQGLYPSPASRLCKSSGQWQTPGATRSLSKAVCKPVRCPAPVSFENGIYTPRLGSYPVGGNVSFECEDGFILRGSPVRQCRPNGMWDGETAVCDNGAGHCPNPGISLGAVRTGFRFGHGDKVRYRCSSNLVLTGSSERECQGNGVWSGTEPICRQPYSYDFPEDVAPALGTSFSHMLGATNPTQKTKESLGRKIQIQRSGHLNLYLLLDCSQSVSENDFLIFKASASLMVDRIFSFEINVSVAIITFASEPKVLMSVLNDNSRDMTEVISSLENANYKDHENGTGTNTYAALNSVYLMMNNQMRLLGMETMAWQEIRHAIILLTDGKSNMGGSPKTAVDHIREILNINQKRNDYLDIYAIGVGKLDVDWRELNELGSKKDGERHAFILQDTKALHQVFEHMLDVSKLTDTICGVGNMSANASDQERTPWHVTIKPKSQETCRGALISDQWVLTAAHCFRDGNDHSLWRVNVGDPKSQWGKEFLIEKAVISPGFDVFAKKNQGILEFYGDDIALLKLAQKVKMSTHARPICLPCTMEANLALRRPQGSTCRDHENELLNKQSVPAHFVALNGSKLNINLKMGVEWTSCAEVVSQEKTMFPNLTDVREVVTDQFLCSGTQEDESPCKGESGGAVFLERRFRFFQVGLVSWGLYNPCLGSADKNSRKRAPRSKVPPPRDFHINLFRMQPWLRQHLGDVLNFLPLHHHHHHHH

B1: RF16-226 (antibody, human IgG4 S228P, lambda)
heavy: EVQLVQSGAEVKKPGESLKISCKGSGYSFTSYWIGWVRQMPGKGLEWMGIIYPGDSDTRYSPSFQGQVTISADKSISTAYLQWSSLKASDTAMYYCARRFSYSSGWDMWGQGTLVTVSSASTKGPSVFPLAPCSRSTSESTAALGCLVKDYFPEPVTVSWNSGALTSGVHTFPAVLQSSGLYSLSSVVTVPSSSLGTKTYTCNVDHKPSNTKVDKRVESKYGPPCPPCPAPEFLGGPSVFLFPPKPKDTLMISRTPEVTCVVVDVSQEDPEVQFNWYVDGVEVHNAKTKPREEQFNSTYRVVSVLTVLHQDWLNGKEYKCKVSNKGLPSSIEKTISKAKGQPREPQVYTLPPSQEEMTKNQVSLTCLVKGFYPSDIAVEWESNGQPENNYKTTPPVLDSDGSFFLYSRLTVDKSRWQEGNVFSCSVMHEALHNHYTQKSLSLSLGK
light: SYELTQPPSVSVSPGQTARITCSGDALTSKYVAWYQQKSGLAPLLVIYEDTRRPSGIPAKFSGSSSGSVATLTISGAHGDDEADYYCYSTDASGHQRVFGGGTKLTVLSQPKAAPSVTLFPPSSEELQANKATLVCLISDFYPGAVTVAWKADGSPVKAGVETTKPSKQSNNKYAASSYLSLTPEQWKSHRSYSCQVTHEGSTVEKTVAPTECS
notes: pH-dependent anti-C2 antibody from a phage display library; also called WT
Kd (human C2 E267A): 11.2 nM
Kd (human C2 F437A): 260 nM
Kd (human C2 T491A): 15.5 nM
Kd (human C2 E275A): 9.4 nM
